Laboratory results as given in paper doi:10.1101/2020.03.14.988345 (bioRxiv, 2020).

Target: His-SP (RBD) (SARS-CoV-2, UniProt P0DTC2 319-541)
Test: SPR

B1: His-CD147 (receptor)
chain: AAGTVFTTVEDLGSKILLTCSLNDSATEVTGHRWLKGGVVLKEDALPGQKTEFKVDSDDQWGEYSCVFLPEPMGTANIQLHGPPRVKAVKSSEHINEGETAMLVCKSESVPPVTDWAWYKITDSEDKALMNGSESRFFVSSSQGRSELHIENLNMEADPGQYRCNGTSSKGSDQAIITLRVRSHLAAL
Kd: 185 nM
